Test results: US20110052525A1, “Breaking Immunological Tolerance with a Genetically Encoded Unnatural Amino Acid” (THE SCRIPPS RESEARCH INSTITUTE, priority 2008, published 2011)

Tests used:
[1] = TR-FRET retinol binding assay of mRBP4 proteins; settings: retinol binding affinity, Cy5-labeled retinol
Description: The binding affinities of mRBP4 proteins were determined by a TR-FRET retinol binding assay.
WT and pNO2Phe mRBP4 mutant proteins were labeled with biotin using the Sulfo-NHS-Biotin kit (Pierce, Rockford, Ill.) according to manufacturer instructions. For determination of retinol binding activity, 10 nM biotin-labeled RBP4 was mixed with 1 nM Streptavidin-Europium chelate (LANCE® Eu-W8044 Streptavidin, Perkin Elmer, Foster City, Calif.). Increasing concentrations of Cy5-labeled retinol were added to the reaction and retinol binding was assessed by homogeneous time-resolved fluorescence resonance energy transfer (TR-FRET).

mRBP4 = molecular target: T1, mRBP4 (Mus musculus, UniProt Q00724); test: Serum IgG titers by ELISA after RIMMS immunization of mice with mRBP4 variants; type: in vivo
T1 construct: The cDNA encoding murine RBP4 (aa 19-201); made in house; host or cells: E. coli BL21(DE3)
Description: 30 μl of 0.5 μg/ml protein was used to coat the wells of Maxisorp 384-well plates (Nunc, Rochester, N.Y.) overnight at 4° C. After washing with PBS+0.05% Tween 20 (PBST), the coated plates were blocked with 80 μl of 1% BSA in PBS, and washed again with PBST. The plates were sequentially incubated with 20 μl of primary antibody or serum diluted in 1% BSA in PBS, 20 μl of HRP-conjugated goat anti-mouse IgG or anti-mouse IgM (Jackson ImmunoResearch Laboratories, West Grove, Pa.), and 20 μl of TMB substrate (KPL, Gaithersburg, Md.), and read at an absorbance of 650 nm. Between incubations, the plates were washed at least six times with PBST.
Before measurement, serum samples were diluted 1:1,000 with 1% BSA in PBS buffer.

Kd [1]: 171 nM
serum IgG titers against WT mRBP4 (mRBP4; Bcl2 mice, RIMMS, ELISA (FIG. 19)): insignificant serum IgG titers
serum IgG titers against WT mRBP4 (mRBP4; C57BL/6 mice, ELISA (FIG. 26)): insignificant serum IgG titers
Substance: WT mRBP4: wild-type murine retinol binding protein 4
